Literature values as cited in patent US20260085103A1, “LONG-ACTING INSULIN COMPOUND” (CHENGDU AODA BIOTECHNOLOGY CO., LTD, priority 2022, published 2026).

How the values were obtained:
[1] = background statement, subcutaneous injection
[2] = after addition of two arginines at the end of the B chain (changed from 5.4)

Substance | duration of action [1] | half-life [1] | isoelectric point [2]
insulin degludec | up to 42 hours | 24 h | 
insulin glargine | 20 to 24 h | 12 h | 6.7
